Assays:
Type in all cases: biochemical
[1] = Catalytic test of in-vitro expressed UDP-glucosyltransferases, Rebaudioside A to Rebaudioside D (HPLC CAD); conditions: 0.5 mM Rebaudioside A, 30° C., T24h sample
Method: 18 μL of plasmid solution (containing approximately 1.5 μg of plasmid) was used for in-vitro expression according to the Promega S30 T7 High-Yield Protein Expression System (ref: L1110) kit. The expression medium was produced as follows:
The prepared expression medium mix was added to the plasmid solution and the solution was allowed to incubate at 30° C. for 3 hours while mixing the mixture every 45 minutes. 5 μL of the mixture was frozen whereas the remainder was used for the catalytic test for the conversion of Rebaudioside A to Rebaudioside D.
(§1) 430 μL of a reaction mixture containing 0.5 mM Rebaudioside A, 3 mM MgCl2, 50 mM phosphate buffer (pH7.2) and 2.5 mM UDP-glucose was added to a 1.5 mL sterile microtube. 52 μL of the enzyme expression medium was added and the resulting mixture was allowed to react at 30° C. for 24 hours. 125 μL samples were taken after 2 hours, 16 hours and 24 hours and added to a 115 μL of 60% methanol and 10 μL of 2 N H2SO4. The quenched sample was centrifuged at 18,000 g for 2 minutes at RT. 200 μL was transferred to an HPLC vial and analyzed.
The HPLC assay was performed as follows:
as §1, with “RT.” for “RT. 200 μL was transferred to an HPLC vial and analyzed.”
The HPLC assay was performed as described in EXAMPLE 20.

[2] = LC-MS of Rebaudioside A reaction mixtures of GI No. 460409128 (Example 23); conditions: for Steviol glycoside conversion in reaction mixture: Reb A: remaining substrate
Method: The reaction mixtures representing GI No. 460409128, particularly the sample “12400 S115N05A7 T24h 130627ABA” of EXAMPLE 20 (hereinafter S115N05A7), and the sample “12400 S129N04 T45h 130712ABA” of EXAMPLE 22 (hereinafter S129N04) were additionally assayed by LC-MS to identify the unknown glycosides. An Agilent 1200 series HPLC system, equipped with binary pump (G1312B), autosampler (G1367D), thermostatted column compartment (G1316B), DAD detector (G1315C), connected with Agilent 6110A MSD, and interfaced with “LC/MSD Chemstation” software, was used.

[3] = Activity for Rubusoside to Rebaudioside E conversion (UGTSL, UGTSL2, UGTLB lysates); conditions: based on initial concentration of Rubusoside; reaction time 45 h. (UGTSL), 2 h. (UGTSL2)
Method: Activity tests were performed at 3 mL scale with 600 μL of lysate for the transformation of Rubusoside using 0.5 mM of substrate, 2.5 mM of UDP-Glucose and 3 mM MgCl2 in 50 mM Sodium Phosphate buffer at pH 7.2. The HPLC assay was performed as described in EXAMPLE 20.
Activity tests were performed at 3 mL scale with 600 μL of lysate for the transformation of Rubusoside using 0.5 mM of substrate, 2.5 mM of UDP-Glucose and 3 mM MgCl2 in 50 mM Sodium Phosphate buffer at pH 7.2. Samples were taken and analyzed by HPLC. The corresponding chromatogram is depicted in FIG. 65.

[4] = LCMS of Rubusoside conversion products with UGTSL, UGTSL2, UGTLB; conditions: UGTSL2 2 hrs, UGTLB 5 hrs, UGTSL 45 hrs
Method: (§2) Conversion of stevioside with UGTSL and UGTSL2 was conducted in similar manner to Example 28, and the conversion of rubusoside with UGTSL and UGTSL2 was conducted similarly to Example 29. Conversions of rubusoside and stevioside with UGTLB was conducted similarly to Example 32.
(§3) The reaction mixtures were analyzed by LCMS to determine all reaction products.

[5] = LCMS of Stevioside conversion products with UGTSL, UGTSL2, UGTLB; conditions: UGTSL2 2 hrs, UGTLB 2 hrs, UGTSL 22 hrs
Method: as §2, §3

[6] = UGT76G1 lysate activity test, Stevioside to Rebaudioside A (HPLC); conditions: in-vivo produced UGT76G1 thawed lysate, 0.5 mM Stevioside, 30° C.
Method: The total volume of the reaction was 5.0 mL with the following composition: 50 mM sodium phosphate buffer pH 7.2, 3 mM MgCl2, 2.5 mM UDP-glucose, 0.5 mM Stevioside and 500 μL of UGT76G1 thawed lysate. The reactions were run at 30° C. on an orbitary shaker at 135 rpm. For each sample, 460 μL of the reaction mixture was quenched with 40 μL of 2N H2SO4 and 420 μL of methanol/water (6/4). The samples were immediately centrifuged and kept at 10° C. before analysis by HPLC (CAD).
(§4) Activity tests were performed on a 5 mL scale with 500 μL of thawed lysate for the transformation of Stevioside to Rebaudioside A and Rebaudioside D to Rebaudioside M using 0.5 mM of substrate, 2.5 mM of UDP-Glucose and 3 mM MgCl2 in 50 mM Sodium Phosphate buffer at pH 7.2. Samples were taken and analyzed by HPLC.

[7] = UGT76G1 activity test, Rebaudioside D to Rebaudioside M (HPLC); conditions: in-vitro produced UGT76G1, 0.5 mM Rebaudioside D, after 120 h
Method: The total volume of the reaction was 2 mL with the following composition: 50 mM sodium phosphate buffer pH 7.2, 3 mM MgCl2, 3.8 mM UDP-glucose, 0.5 mM Rebaudioside D and 180 μL of in-vitro produced UGT76G1. The reactions were run at 30° C. on an orbitary shaker at 135 rpm. For each sample, 400 μL of reaction mixture was quenched with 40 μL of 2N H2SO4 and 360 μL of 60% MeOH. After centrifugation, the supernatant was analyzed by HPLC (CAD).
as §4
5 mL of the lysate of Example 12 was used to transform Rebaudioside D to Rebaudioside M on a 50 mL scale. The reaction medium consisted of 50 mM Sodium Phosphate buffer pH 7.2, 3 mM of MgCl2, 2.5 mM of UDP-Glucose and 0.5 mM of Rebaudioside D. After allowing the reaction to be shaken at 30° C. for 90 h. 50 mL of ethanol was added and the resulting mixture was allowed to stir at −20° C. for 1 h. After centrifugation at 5000 g for 10 min. the supernatant was purified via ultrafiltration (Vivaflow MWCO 30000). […]

[8] = Conversion of Rebaudioside E to Rebaudioside D with UGT76G1 lysate; conditions: 500 μL UGT76G1 thawed lysate, 0.5 mM Rebaudioside E, 30° C., pH 7.5
Method: The total volume of the reaction was 5.0 mL with the following composition: 100 mM potassium phosphate buffer pH 7.5, 3 mM MgCl2, 2.5 mM UDP-glucose, 0.5 mM Rebaudioside E and 500 μL of UGT76G1 thawed lysate (UGT76G1 gene was cloned in pET30a+ vector and expressed in E. coli BL21 (DE3)). The reactions were run at 30° C. on an orbitary shaker at 135 rpm. For sampling 300 μL of the reaction mixture was quenched with 30 μL of 2N H2SO4 and 270 μL of methanol/water (6/4). The samples were immediately centrifuged and kept at 10° C. before analysis by HPLC (CAD detection).

[9] = Catalytic reaction with in-vitro produced UGT91D2, Rebaudioside A to Rebaudioside D; conditions: in-vitro produced UGT91D2, 0.1 mM Rebaudioside A, after 120 h
Method: The total volume of the reaction was 0.5 mL with the following composition: 50 mM sodium phosphate buffer pH 7.2, 3 mM MgCl2, 3.8 mM UDP-glucose, 0.1 mM Rebaudioside A and 180 μL of in-vitro produced UGT91D2. The reactions were run at 30° C. on an orbitary shaker at 135 rpm. For each sample, 450 μL of reaction mixture was quenched with 45 μL of 2N H2SO4 and 405 μL of 60% MeOH. After centrifugation, the supernatant was analyzed by HPLC (CAD). HPLC indicated a 4.7% conversion of rebaudioside A to rebaudioside D after 120 h.

B1: S115N05 A7: UGTSL, Solanum lycopersicum glycosyltransferase, SEQ ID 5; S129N04 is the sample of the in-vivo produced enzyme (protein, listed as Solanum lycopersicum)
chain: MSPKLHKELFFHSLYKKTRSNHTMATLKVLMFPFLAYGHISPYLNVAKKLADRGFLIYFCSTPINLKSTIEKIPEKYADSIHLIELHLPELPQLPPHYHTTNGLPPNLNQVLQKALKMSKPNFSKILQNLKPDLVIYDILQRWAKHVANEQNIPAVKLLTSGAAVFSYFFNVLKKPGVEFPFPGIYLRKIEQVRLSEMMSKSDKEKELEDDDDDDDLLVDGNMQIMLMSTSRTIEAKYIDFCTALTNWKVVPVGPPVQDLITNDVDDMELIDWLGTKDENSTVFVSFGSEYFLSKEDMEEVAFALELSNVNFIWVARFPKGEERNLEDALPKGFLERIGERGRVLDKFAPQPRILNHPSTGGFISHCGWNSAMESIDFGVPIIAMPMHLDQPMNARLIVELGVAVEIVRDDDGKIHRGEIAETLKGVITGKTGEKLRAKVRDISKNLKTIRDEEMDAAAEELIQLCRNGN
Steviol glycoside conversion in reaction mixture: Reb UNK ([1]; Reb UNK later identified as reb D2): 23.3 % area | Steviol glycoside conversion in reaction mixture: Reb A ([1]; remaining substrate): 46.7 % area | Steviol glycoside conversion in reaction mixture: Reb UNK ([2]; Reb UNK later identified as reb D2, listed as S115N05A7): 19.93 % area | Steviol glycoside conversion in reaction mixture: Reb UNK ([2]; Reb UNK later identified as reb D2, listed as S129N04): 21.22 % area | Steviol glycoside conversion in reaction mixture: Reb D ([2]; listed as S115N05A7): 20.35 % area | Steviol glycoside conversion in reaction mixture: Reb D ([2]; listed as S129N04): 23.73 % area | Steviol glycoside conversion in reaction mixture: Reb A ([2]; listed as S115N05A7): 53.24 % area | Steviol glycoside conversion in reaction mixture: Reb A ([2]; listed as S129N04): 49.00 % area | Steviol glycoside conversion in reaction mixture: Unknown@RT3.5 ([2]; unknown later identified as reb M2, listed as S115N05A7): 6.47 % area | Steviol glycoside conversion in reaction mixture: Unknown@RT3.5 ([2]; unknown later identified as reb M2, listed as S129N04): 6.05 % area | Rubusoside conv. (reactiontime) [3]: 70% (45 h.) | LC-MS, peak area ratio (%) Reb D [4]: 3.45% | LC-MS, peak area ratio (%) Reb E [4]: 35.88% | LC-MS, peak area ratio (%) Rub [4]: 7.82% | LC-MS, peak area ratio (%) Stev [4]: 2.37% | LC-MS, peak area ratio (%) Unknown peak #1 (MW804) RT 30.70 min [4]: 20.38% | LC-MS, peak area ratio (%) Unknown peak #2 (MW804) RT 49.50 min [4]: 27.75% | LC-MS, peak area ratio (%) Unknown peak #3 (MW804) RT 50.40 min [4]: 2.35% | LC-MS, peak area ratio (%) Reb D [5]: 0.54% | LC-MS, peak area ratio (%) Reb E [5]: 49.68% | LC-MS, peak area ratio (%) Stev [5]: 25.24% | LC-MS, peak area ratio (%) Unknown peak #1 (MW966) RT = 22.60 min [5]: 3.97% | LC-MS, peak area ratio (%) Unknown peak #2 (MW966) RT = 26.50 min [5]: 20.56%

B2: UGT76G1: UDP-glucosyltransferase of Stevia rebaudiana, Genbank AAR06912.1, produced in E. coli or in vitro (protein, UniProt Q6VAB4 1-458, looked up)
UDP-glycosyltransferase 76G1: MENKTETTVRRRRRIILFPVPFQGHINPILQLANVLYSKGFSITIFHTNFNKPKTSNYPHFTFRFILDNDPQDERISNLPTHGPLAGMRIPIINEHGADELRRELELLMLASEEDEEVSCLITDALWYFAQSVADSLNLRRLVLMTSSLFNFHAHVSLPQFDELGYLDPDDKTRLEEQASGFPMLKVKDIKSAYSNWQILKEILGKMIKQTKASSGVIWNSFKELEESELETVIREIPAPSFLIPLPKHLTASSSSLLDHDRTVFQWLDQQPPSSVLYVSFGSTSEVDEKDFLEIARGLVDSKQSFLWVVRPGFVKGSTWVEPLPDGFLGERGRIVKWVPQQEVLAHGAIGAFWTHSGWNSTLESVCEGVPMIFSDFGLDQPLNARYMSDVLKVGVYLENGWERGEIANAIRRVMVDEEGEYIRQNARVLKQKADVSLMKGGSSYESLESLVSYISSL
conversion of stevioside to rebaudioside A (HPLC) [6]: almost complete conversion | conversion of rebaudioside D to rebaudioside M (HPLC) [7]: 80% | conversion of Rebaudioside E to Rebaudioside D (reaction profile) [8]: complete conversion

B3: UGT91D2: UDP-glucosyltransferase, Genbank ACE87855.1, in-vitro produced (protein, UniProt B3VI56 1-473, looked up)
UDP-glycosyltransferase 91D2: MATSDSIVDDRKQLHVATFPWLAFGHILPYLQLSKLIAEKGHKVSFLSTTRNIQRLSSHISPLINVVQLTLPRVQELPEDAEATTDVHPEDIPYLKKASDGLQPEVTRFLEQHSPDWIIYDYTHYWLPSIAASLGISRAHFSVTTPWAIAYMGPSADAMINGSDGRTTVEDLTTPPKWFPFPTKVCWRKHDLARLVPYKAPGISDGYRMGLVLKGSDCLLSKCYHEFGTQWLPLLETLHQVPVVPVGLLPPEVPGDEKDETWVSIKKWLDGKQKGSVVYVALGSEVLVSQTEVVELALGLELSGLPFVWAYRKPKGPAKSDSVELPDGFVERTRDRGLVWTSWAPQLRILSHESVCGFLTHCGSGSIVEGLMFGHPLIMLPIFGDQPLNARLLEDKQVGIEIPRNEEDGCLTKESVARSLRSVVVEKEGEIYKANARELSKIYNDTKVEKEYVSQFVDYLEKNTRAVAIDHES
modifications: in vitro produced
notes: UDP-glucosyltransferase, Genbank ACE87855.1, in-vitro produced
conversion of rebaudioside A to rebaudioside D (HPLC) [9]: 4.7%
